The record followed here is paper PMC4616025, “Identification of a phosphinothricin-resistant mutant of rice glutamine synthetase using DNA shuffling” (Scientific Reports, 2015).

Substrate in the series: N[C@@H](CCC(=O)O)C(=O)O
The experiment in a line: purified protein. The format is biochemical, Oryza sativa. To be noted: general assay: 5 mM ATP, 30 mM hydroxylamine, 50 mM MgCl2, 100 mM Tris-HCl pH 7.5, 37 °C, Km measured as in a cited method.

B1: OsGS1S (Oryza sativa Japonica Group) (protein)
chain: MASLTDLVNLNLSDTTEKIIAEYIWIGGSGMDLRSKARTLSGPVTDPSKLPKWNYDGSSTGQAPGEDSEVILYPQAIFKDPFRKGNNILVMCDCYTPAGEPIPTNKRHNAAKIFSSPEVASEEPWYGIEQEYTLLQKDINWPLGWPVGGFPGPQGPYYCGIGADKSFGRDIVDSHYKACLYAGINISGINGEVMPGQWEFQVGPSVGISAGDQVWVARYILERITEIAGVVVSFDPKPIPGDWNGAGAHTNYSTKSMRNDGGYEIIKSAIEKLKLRHKEHISAYGEGNERRLTGRHETADINTFSWGVANRGASVRVGRETEQNGKGYFEDRRPASNMDPYIVTSMIAETTIIWKP
notes: full-length, plant-codon-optimized synthetic gene (PTDS), vector pYM4087 with six-histidine tag, expressed in E. coli BL21(DE3), Ni-NTA purified; forward primer atggcttctctcaccga
As to B1, the Km was found to be 1.22 ± 0.011 mM.

B2: OsGS1S (Oryza sativa Japonica Group; A63E/R295K/T293A/V193A) (protein)
chain: MASLTDLVNLNLSDTTEKIIAEYIWIGGSGMDLRSKARTLSGPVTDPSKLPKWNYDGSSTGQEPGEDSEVILYPQAIFKDPFRKGNNILVMCDCYTPAGEPIPTNKRHNAAKIFSSPEVASEEPWYGIEQEYTLLQKDINWPLGWPVGGFPGPQGPYYCGIGADKSFGRDIVDSHYKACLYAGINISGINGEAMPGQWEFQVGPSVGISAGDQVWVARYILERITEIAGVVVSFDPKPIPGDWNGAGAHTNYSTKSMRNDGGYEIIKSAIEKLKLRHKEHISAYGEGNERRLAGKHETADINTFSWGVANRGASVRVGRETEQNGKGYFEDRRPASNMDPYIVTSMIAETTIIWKP
notes: as for B1
For the protein B2, the Km (stated gain) is 7.99 ± 0.021 mM.

B3: OsGS1S (Oryza sativa Japonica Group; R295K) (protein)
chain: MASLTDLVNLNLSDTTEKIIAEYIWIGGSGMDLRSKARTLSGPVTDPSKLPKWNYDGSSTGQAPGEDSEVILYPQAIFKDPFRKGNNILVMCDCYTPAGEPIPTNKRHNAAKIFSSPEVASEEPWYGIEQEYTLLQKDINWPLGWPVGGFPGPQGPYYCGIGADKSFGRDIVDSHYKACLYAGINISGINGEVMPGQWEFQVGPSVGISAGDQVWVARYILERITEIAGVVVSFDPKPIPGDWNGAGAHTNYSTKSMRNDGGYEIIKSAIEKLKLRHKEHISAYGEGNERRLTGKHETADINTFSWGVANRGASVRVGRETEQNGKGYFEDRRPASNMDPYIVTSMIAETTIIWKP
notes: as for B1
As to B3, the Km (stated gain) was 8.04 ± 0.015 mM.

The term Km denotes the concentration of substrate that gives half-maximal velocity.
